Assay results as given in paper PMC3587828 (The Journal of Cell Biology, 2013).

Experiments:
[1] = target: recombinant Cdc42 (Q61L), GST-free (human, UniProt P60953 1-188, Q61L | C188S); experiment: pull-down
MBP–Morg1 = target: T1, MBP–Morg1 (human, UniProt Q9BRX9 1-315); experiment: pull-down
T1 sequence (looked up): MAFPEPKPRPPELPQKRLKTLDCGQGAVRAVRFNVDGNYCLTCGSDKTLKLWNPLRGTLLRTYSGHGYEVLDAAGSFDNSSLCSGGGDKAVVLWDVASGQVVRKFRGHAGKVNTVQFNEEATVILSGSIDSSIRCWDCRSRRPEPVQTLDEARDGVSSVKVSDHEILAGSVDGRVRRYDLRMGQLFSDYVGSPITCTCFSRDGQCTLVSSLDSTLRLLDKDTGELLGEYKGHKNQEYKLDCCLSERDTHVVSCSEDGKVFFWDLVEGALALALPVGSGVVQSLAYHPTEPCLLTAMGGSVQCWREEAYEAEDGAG

recombinant Cdc42 (Q61L), GST-free, sequence (P60953 1-188 Q61L/C188S): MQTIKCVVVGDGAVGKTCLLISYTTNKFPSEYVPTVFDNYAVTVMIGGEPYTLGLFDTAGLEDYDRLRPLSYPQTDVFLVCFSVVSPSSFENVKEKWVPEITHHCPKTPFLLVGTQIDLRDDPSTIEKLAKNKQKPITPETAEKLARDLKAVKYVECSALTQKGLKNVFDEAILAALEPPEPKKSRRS

- binding result [1]: binds
- binding result (MBP–Morg1): binds
B1: GST–Par6β (126–254) (domain or fragment, human, UniProt Q9BYG5 126-254, looked up)
chain: RKKPHIVISMPQDFRPVSSIIDVDILPETHRRVRLYKYGTEKPLGFYIRDGSSVRVTPHGLEKVPGIFISRLVPGGLAQSTGLLAVNDEVLEVNGIEVSGKSLDQVTDMMIANSRNLIITVRPANQRNN
